Patent US20260125455A1 (CLEVELAND CLINIC FOUNDATION, published 2026)

Assays:
[1] = target: T1, human complement protein C6 (human, UniProt P13671 22-934); assay: ELISA, C6-coated wells
T1 construct: also called human C6; C6 antigen
Procedure: The binding of the purified chimeric molecules, MoC601 HuG4K and MoC601 HuG1KFab, was also confirmed by ELISA, where the anti-human IgG (Fab-specific) secondary reagent was used. The control mouse antibody bound as previously (EC₅₀ 0.11 nM). The EC₅₀ for purified MoC601 HuG4K (0.27 nM) was similar to that obtained for the MoC601 HuG4K supernatant sample above. […] The EC₅₀ value for the Fab molecule (0.48 nM) was higher than for the antibody, which would be expected since the Fab is unable to bind bivalently to the antigen on the well. A C6-binding assay was also set up on the Octet RED384 instrument. […] However, MoC601 MoG1K could be stably loaded onto anti-mouse Fc (AMC) biosensors. Concentrations of the mouse and chimeric antibodies were adjusted to give similar levels of loading on to the AMC and […]

[2] = target: T1, human complement protein C6; assay: ELISA, C6-coated wells, same experiment as the chimeric supernatants
Procedure: The chimeric molecules, MoC601 HuG4K and MoC601 HuG1KFab, were tested for C6 binding in the form of expression supernatants. In this experiment, the human molecules were detected with an HRP-conjugated goat anti-human kappa chain reagent, which gave relative low signals. However, the binding of both chimeric molecules to C6 was confirmed. The EC₅₀ value for MoC601 HuG4K (0.43 nM) was higher than that of the mouse antibody (0.07 nM), though this was lower than in previous experiments. A further experiment was performed to find a more suitable anti-human antibody detection reagent. MoC601 HuG4K from expression supernatant was detected with three different secondary antibodies. Both anti-human IgG Fc-specific and Fab-specific detection gave higher signals than the anti-kappa chain reagent but the Fc-specific detection yielded a very low EC₅₀ (0.03 nM).

[3] = target: T1, human complement protein C6; assay: ELISA, C6 coated at 0.5 and 1.0 µg/ml, anti-mouse IgG (Fc-specific) HRP
Procedure: Prior to the generation of the chimeric molecules, the binding ELISA was optimised using purified mouse 1C9 antibody. The ELISA method published in Lin et al., 2020, uses human C6 protein at a concentration of 1 nM (0.12 μg/ml) to coat the ELISA plate wells. Since this is lower than the concentrations generally used, coating concentration of 0.5 μg/ml and 1.0 μg/ml were also tested. Binding of the mouse antibody (designated MoC601 MoG1K) was detected with an HRP-conjugated goat anti-mouse IgG (Fc-specific) reagent in an ELISA assay. […] This is likely to make the assay unsuitable for differentiating between the binding of different humanized variants to C6. In contrast, C6 coating concentrations of 0.5 μg/ml and 1.0 μg/ml yield results which show a clear dose-response to MoC601 MoG1K antibody, with sigmoidal-shaped curves and a consistent EC₅₀ value (0.12 nM). […] Due to lower signal variation, 1.0 μg/ml was used as the C6 coating concentration in subsequent experiments.

[4] = target: T1, human complement protein C6; assay: BLI (Octet RED384), antibody on anti-mouse Fc (AMC) biosensors, C6 0.27-5 nM, 1:1 fit, experiment 2
Procedure: (§1) The binding of the purified chimeric molecules, MoC601 HuG4K and MoC601 HuG1KFab, was also confirmed by ELISA, where the anti-human IgG (Fab-specific) secondary reagent was used. The control mouse antibody bound as previously (EC₅₀ 0.11 nM). The EC₅₀ for purified MoC601 HuG4K (0.27 nM) was similar to that obtained for the MoC601 HuG4K supernatant sample above. […] The EC₅₀ value for the Fab molecule (0.48 nM) was higher than for the antibody, which would be expected since the Fab is unable to bind bivalently to the antigen on the well. A C6-binding assay was also set up on the Octet RED384 instrument. […] However, MoC601 MoG1K could be stably loaded onto anti-mouse Fc (AMC) biosensors. Concentrations of the mouse and chimeric antibodies were adjusted to give similar levels of loading on to the AMC and
Protein G biosensors respectively in subsequent experiments. There was no non-specific binding of C6 protein to unloaded sensors or sensors loaded with an isotype control antibody. […] The mouse and chimeric datasets were processed by subtracting the no antigen controls and the data were fitted to a 1:1 binding model. Binding curves giving Req/Rₘₐₓ ratios>90% or showing poor fitting were excluded from analysis. A second full kinetic experiment was performed with an adjusted concentration range (six points, 0.27-5 nM) and an extended dissociation step of 20 minutes.

[5] = target: T1, human complement protein C6; assay: BLI (Octet RED384), antibody on anti-mouse Fc (AMC) biosensors, C6 0.16-10 nM, 1:1 fit, experiment 1
Procedure: as §1
(§2) Protein G biosensors respectively in subsequent experiments. There was no non-specific binding of C6 protein to unloaded sensors or sensors loaded with an isotype control antibody. A full kinetic experiment was run for purified MoC601 MoG1K and MoC601 HuG4K antibodies using seven concentrations of C6 (0.16-10 nM) and association and dissociation steps of 20 and 15 minutes respectively. The mouse and chimeric datasets were processed by subtracting the no antigen controls and the data were fitted to a 1:1 binding model. […]

[6] = target: T1, human complement protein C6; assay: BLI (Octet RED384), antibody on anti-mouse Fc (AMC) biosensors, C6 0.16-10 nM, 1:1 fit, experiment 1; experiment 1
Procedure: as §1, §2

T1 sequence (P13671 22-934 limits assumed): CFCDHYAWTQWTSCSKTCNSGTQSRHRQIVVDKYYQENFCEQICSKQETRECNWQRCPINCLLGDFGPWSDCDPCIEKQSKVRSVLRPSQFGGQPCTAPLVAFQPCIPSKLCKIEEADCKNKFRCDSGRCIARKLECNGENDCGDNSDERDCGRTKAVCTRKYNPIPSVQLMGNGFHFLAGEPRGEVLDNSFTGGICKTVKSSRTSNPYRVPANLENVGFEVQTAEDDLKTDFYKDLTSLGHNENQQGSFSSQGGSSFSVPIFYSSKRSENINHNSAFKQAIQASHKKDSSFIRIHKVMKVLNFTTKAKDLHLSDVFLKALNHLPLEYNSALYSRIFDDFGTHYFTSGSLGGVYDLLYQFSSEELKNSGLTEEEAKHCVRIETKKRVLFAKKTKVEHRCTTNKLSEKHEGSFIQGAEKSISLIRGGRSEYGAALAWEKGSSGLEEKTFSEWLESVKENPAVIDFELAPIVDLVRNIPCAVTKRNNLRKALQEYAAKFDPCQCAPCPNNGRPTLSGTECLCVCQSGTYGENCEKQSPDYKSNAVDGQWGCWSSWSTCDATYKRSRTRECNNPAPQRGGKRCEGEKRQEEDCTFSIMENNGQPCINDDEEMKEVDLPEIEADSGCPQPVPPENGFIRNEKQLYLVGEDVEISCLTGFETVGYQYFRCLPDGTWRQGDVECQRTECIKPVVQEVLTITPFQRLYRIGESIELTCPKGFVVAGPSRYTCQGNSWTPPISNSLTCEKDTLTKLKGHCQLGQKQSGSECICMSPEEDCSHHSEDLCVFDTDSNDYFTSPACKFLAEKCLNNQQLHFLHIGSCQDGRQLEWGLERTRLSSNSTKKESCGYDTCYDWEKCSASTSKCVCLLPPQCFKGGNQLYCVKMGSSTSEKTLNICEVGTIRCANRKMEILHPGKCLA

EC50 [1]: 0.11 nM | EC50 [2]: 0.07 nM | EC50 [3]: 0.12 nM | Kd [4]: 0.29 nM | kon [4]: 690000 M⁻¹ s⁻¹ | Kd [5]: 0.42 nM | kon [5]: 730000 M⁻¹ s⁻¹ | koff [6]: 0.00031 s⁻¹
B1: MoC601 MoG1K (mouse anti-C6 monoclonal antibody 1C9) (antibody, V domains shown)
VH: QVQLQQSGAELVKPGASVKISCKASGYAFSDYWMNWVKQRPGKGLEWIGQIYPGDDDTNYNGKFKGKATLTADKSSSTAYMQLSSLTSEDSAVYFCAREGYYGYTYVEYFDVWGTGTTVTVSS
VL: QIVLTQSPAIMSVSPGEKVTLTCSASSSVSYMHWYQQKSGTSPKRWIYDTSKLASGVPARFSGSGSGTSYSLTISSMEAEDAATYYCQQWTSNPLTFGAGTKLELR
notes: also called mAb 1C9; mouse antibody
